Reference: PMC7935978

Test system: FUS-Gal4
Test: single-molecule (DNA curtains, koff/kon)
Settings: condensate-DNA interaction; protein label and DNA substrate inferred; 40 mM Tris-HCl pH 7.5, 150 mM KCl, 2 mM MgCl2, 1 mM DTT, 0.2 mg/ml BSA; EMSA 30 min at room temperature

**Q.** For Lambda DNA + 7x Gal4 sites, which Kd is on record?
**A.** 0.8 nM
